Experimental data reported in a protein production outcome set (Wang et al. 2014).

Test: label from the status in PepcDB records

| Sequence | protein production |
| --- | --- |
| MIPEHLSIYTAYNANIDAIVKLNQETIQNLINAFDPDEVKRRIEEYPREINEPIDFVARLVHTLKLGKPAAVPLVNEKMNEWFDKTFRYEEERLGGQAGIIANTLAGLKIRKVIAYTPFLPKRLAELFKKGVLYPVVENGELQFKPIQEAYREGDPLKINRIFEFRKGLKFKLGDETIEIPNSGRFIVSARFESISRIETREDIKPFLGEIGKEVDGAIFSGYQGLRTKYSDGKDANYYLRRAKEDIIEFKEKDVKIHVEFASVQDRKLRKKIITNILPFVDSVGIDEAEIAQILSVLGYRELADRIFTYNRLEDSILGGMIILDELNFEILQVHTTYYLMYITHRDNPLSEEELAKSLEFGTTLAAARASLGDIRGPDDYKVGLKVPFNERSEYVKLRFEEAKSRLRMREYKVVVIPTRLVQNPVLTVGLGDTISAGAFLTYLEFLKRH | not failed |
| MSMELFEVHEGKAKVLVPKAKTIYDSPVFYNPRMAPNRDVVVLLLNVLKPKIVLDALSATGIRGIRFALETPAEEIWMNDINELAYELMKKNVLLNFKGTLKENAKRAIFEGEKTIVINNDDANRLMAEKHRYFHFIDLDPFGSPMEFLDTALRSVKRKGILGVTATDGAPLCGAHPKACLRKYLAVPLRGELCHEVGTRILVGVIARYAAKYDLGMEVLLAYYKDHYFRAFVKLKDGAKKGDETLENLGYVYFDEKTGRFEVEKSFLSTRPNAYGPLWLGPLKNEKVVGEMLELLVSGFEVANYREVLKLLHMLHEELDIPLFYDTHALGKRLKIEPKKLGEIIKELKSMGYEATRTHFSPTGIKTNAPYEVFVEVMRKN | failed |
| MQDFWHAASAQLESELTPQQFKTWIKPLTPLSFDEQACMLRIAAPNRFKLDWVKSQFSGRIQSLACDYWEMQVDVQFVLDPTAGQRQAAMQPALAPMPMQPLAAQTMQAQAVPREAPARPTMAPYRETPMATAAHAAADIDVPVMDAAEASTQSYRVPAPAAPAVMGGLSAPPAAPVDDTVHERSRLNPILTFDNLVTGKANQLARAAAVQVANNPGKSYNPLYLYGGVGLGKTHLIHAIGNFMLMENPRARIRYIHAEQYVSDVVKAYQRKAFDDFKRYYHSLDLLLIDDIQFFSGKNRTQEEFFYAFEALIANRAQVIITSDTYPKEITGIDDRLISRFDSGLTVAIEPPELEMRVAILMKKAQAENVTVPEEVAFFVAKHLRSNVRELEGALRKILAYSNFHGKEITIEVTREALKDLLTVQNRQISVENIQKTCADFYNIKVADMYSKKRPANIARPRQIAMYLAKELTQKSLPEIGELFGGRDHTTVLHAVRKIADERSKDAQLNHELHVLEQTLKG | failed |
| MKELAGKNLGVTTRFVLRYVFQNTIHSIWRERNERRHGEKPSRTEKIVKLIDKNIRNRLSTIRVRGEEKYAQGTQMRFASRQYQIDRTFL | failed |
| MMANHLVKPDNRNCKRPRELESPVPDSPQLSSLGKSDSSFSEISGLFYKDEALEKDLNDVSKEINLMLSTYAKLLSERAAVDASYIDEIDELFKEANAIENFLIQKREFLRQRFTVIANTLHR | failed |
| MGEDRRSLRVDYDDNFLRNNICSLKVSFIKQQGGAEGVKRLYADLGLALVALIWGSTFPVVKIALDSMSPFAFNTVRFFIACLFFLPFLKGWDFKDGFKIGIASFLGYTFQTVGLDYTTATNAGFITSTYVVLAPIISWLVYKDVFDKRDVSGVLLAFVGFYFLSGYSGFNIGDILMLFCALFFGAEIAMISHYSRLSNPTMLAFWQSFAIFILSAPFAVFTTTKFEINTTVILCLLITAFFATFVAKMLQNWLQSYTKSSDAAVILSLEGVFAHLFSVAVLAEILTPVQYFGAFLILLAVIIVSLRV | failed |
| LETYNTCDTPPPLNNLTPYRDDGKEALKFYTDPSYFFDLWKEKMLQDTKDIMKEKRKHRKEKKDNPNRGNVNPRKIKTRKEEWEKMKMGQEF | failed |
| MGGNRQQEIASGCCLVAEQHDQVVAYASYQPTGLLGQPLLTYLCVAPAMRGQGIAKQLVETIQGQARGRMLLSSTEDWCLASQKIFTDLGWRKIGALAGVNKDGSTEYFYAVDLNH | failed |
| MKASFKGKFDVDKSGSVASLTFNAGNAKLRATMTDASFVAGPSFNGLSLAVEKPGFFIIDYNVPKKDVRFQFMNTIRIAEKPLNLTYIHMRGDNRTIVDGSFVIDPANKLSANYMVGTKNCKLKYTYVHGGIATFEPCYDVAKNMWDFAISHKLYGGDNLKATYQTSSKMLGLEWSNNSKSTGSFKVCASMNLAEELKPPKLTAETTWNLEL | not failed |
| MMVKDGLRYWPLGMAFLLGVGLQPVRAAEMFLPPTGLAQEELIALTEVDSLAQARLPQSEGSAIDLLPLPPQPTAAVDPPREAPASLPTTIEVKGDSPAPPVEPSPPTTDNSPGVPTTPQLAAEQAVQEARLALLREGDRYWQLGDLTTARTYYQKAKADLNVPPPHVIPPAVLEISQLPPAAQVYWREVQSGSQLYTAQAVPLQLLVEQFPEFIPAQVRFGEFLAQQGSLKEACAHLEKAASLYPDQPDIQRGLITLYDRQQQWLEAALAAQRFALLNPDHPATPEFEQLAAERMQRFRRRLQGQLREGMVVGALTGLVGVALTGNPLLSLDSIQMMTLMMQGESALGRSAARNISRQVKLLEDAAVQTYVNEVGQRLAKVAGRNEFAYEFFVIKDNDLNAFALPGGKIFVNSGAILKASTEAELAGLLAHEIAHTVLSHGFRLMTQGTATANLTRLLPAGGYVTGIVVTSYSREMEREADILGTQILARAGYAADGLLNLMHTLKKEYRNQEPPLPWFSTHPPTNERIRYIRGLMRDRGYTPFAFEGLERHQRIQAHLRTLVDPPNAPKSKRETAKTPQ | failed |
| MVANLPALFSLGVFVGVILLIMSEKIHLTIAAFLGALILVFTHVITLKEGIDYISQSYATLALFFGVMVLVRSFEPTKIFEYLATQMVLLAKGSGKLLMLGVIAITTPICAVLPNATTVMLLAPLIPPLAQEIGVDFVPILILMVFVANSAGLLTLVGDPATFIVGDAINISFNDYLFKLSFMGVLAIVSIVVITPFLFRHIWRSRFTHLEDLPHPQINHPKVLMAGGVIITLVLIFFVIGESLPVPIPPASVALMGACLALLLASQSKIDTVHNILRDVDWSTLIFFMSIFVIIGSLEKTGVTASLAQLLAVVVGQNIAFGAIVLVFTVGLLSSVVPNIPLVVAMVPLLKQYVVNIGFAGPEILGANFDGQLPAEVLPLFYAMMFGATLGGNGTLVGASSNIVAAGISEQHGRPISFHRFLRYGLPVMAVQLVVAALFVAWLMFTQQG | failed |
| MVLKERHKKICLLPSYSRLAHYPGLLMLTTLIYRSHIRGDEPVKKIEEMVSIANRRNMRSDVTGILLFNGSHFFQLLEGPEEQVQMIYRAICQDPRHYNIVELLCDYAPARRFGKAGMELFDLRLHERDDVLQAVFDKGTSKFQLTYDDRALQFFRTFVLATEQSTYFEIPAEDSWLFIADGSDKELDSCTLSSNINDHFAFHPIVDPLSRRIIAFEAIVQKNEDSPSAIAVGQRKDEEIYTADLKSKALAFAMAHALKLGDKMISINLLPMTLVNKPDAVSFLLDEIKANALVPEQIIVEFTESEVISRFDEFAEAVKSLKAAGISVAIDHFGAGFAGLLLLSRFQPDRIKISQELITNVHKSGPRQAIIQAIMKCCTSLEIQVSAMGVATPEEWMWLESAGIEMFQGDLFSKAKLNGIPSVAWPEKK | failed |
| VTGDRAGGRSWCLRRVGMSAGWLLLEDGCEVTVGRGFGVTYQLVSKICPLMISRNHCVLKQNPEGQWTIMDNKSLNGVWLNRARLEPLRVYSIHQGDYIQLGVPLENKENAEYEYEVTEEDWETIYPCLSPK | not failed |
| MRPPLIERYRNLLPVSEKTPVISLLEGSTPLIPLKGPEEARKKGIRLYAKYEGLNPTGSFKDRGMTLAVSKAVEGGAQAVACASTGNTAASAAAYAARAGILAIVVLPAGYVALGKVAQSLVHGARIVQVEGNFDDALRLTQKLTEAFPVALVNSVNPHRLEGQKTLAFEVVDELGDAPHYHALPVGNAGNITAHWMGYKAYHALGKAKRLPRMLGFQAAGAAPLVLGRPVERPETLATAIRIGNPASWQGAVRAKEESGGVIEAVTDEEILFAYRYLAREEGIFCEPASAAAMAGVFKLLREGRLEPESTVVLTLTGHGLKDPATAERVAELPPPVPARLEAVAAAAGLL | not failed |
